# Results as given in article PMC11046786.
# Target: Psilocybe mexicana IasA (indole-3-acetaldehyde synthase), C-terminally hexahistidine-tagged (Psilocybe mexicana)
# Test: SEC; Superdex 200 increase 10/300 GL, native protein, 50 mM sodium phosphate, 150 mM NaCl, pH 7.2, 0.5 mL/min
substance,measurement,value
"Psilocybe mexicana IasA (indole-3-acetaldehyde synthase), C-terminally hexahistidine-tagged (enzyme)",stoichiometry N,2
